From US20240287138A1 (Merck Sharp & Dohme, published 2024)
Numbered stars: 1 amine (or outer) side, 2 acyl side, 3 side chain; on linkers, the order of the positions; unused ones are H or OH. Bridge positions count the residues as written; N and C are the ends. Square brackets hold non-standard residues; d marks the D form. 1S4RAcpc = (1S,4R)-4-Aminocyclopent-2-ene-1-carboxylic acid, O=C([C@@H]1C=C[C@H](N[*:1])C1)[*:2]; bhcLeu = (1R,3S)-3-aminocyclopentane-1-carboxylic acid, O=C([C@@H]1CC[C@H](N[*:1])C1)[*:2]; dPro4cPr = (R)-5-Azaspiro[2.4]heptane-6-carboxylic acid, O=C([C@H]1CC2(CC2)CN1[*:1])[*:2]; FX1 = N5-(Pyridin-3-yl)-L-glutamine, O=C(CC[C@H](N[*:1])C(=O)[*:2])Nc1cccnc1; hSOMe = (S)-2-Amino-4-methoxybutanoic acid, COCC[C@H](N[*:1])C(=O)[*:2]; Trp(βS-Me,7-OMe) = COc1cccc2c([C@H](C)[C@H](N)C(=O)O)c[nH]c12; Phe(4-CH2SO3H) = N[C@@H](Cc1ccc(CS(=O)(=O)O)cc1)C(=O)O; Trp(7-Cl) = N[C@@H](Cc1c[nH]c2c(Cl)cccc12)C(=O)O; Phe(4-CONH2) = NC(=O)c1ccc(C[C@H](N)C(=O)O)cc1; Phe(4-COOH) = N[C@@H](Cc1ccc(C(=O)O)cc1)C(=O)O; Trp(7-aza) = N[C@@H](Cc1c[nH]c2ncccc12)C(=O)O; Pip(5R-OH) = O=C(O)[C@@H]1CC[C@@H](O)CN1; Tyr(2-F) = N[C@@H](Cc1ccc(O)cc1F)C(=O)O; AEF = NCCOc1ccc(C[C@H](N)C(=O)O)cc1; Val(3-OH) = CC(C)(O)[C@H](N)C(=O)O; Pip(4-aza) = O=C(O)[C@@H]1CNCCN1; 4Pal = N[C@@H](Cc1ccncc1)C(=O)O; NMeE = CN[C@@H](CCC(=O)O)C(=O)O; dHyp = O=C(O)[C@H]1C[C@H](O)CN1; NMeS = CN[C@@H](CO)C(=O)O; αMeS = C[C@](N)(CO)C(=O)O; Nle = CCCC[C@H](N)C(=O)O; Pip2c = not defined here; Bhv = not defined here; Sar = CNCC(=O)O

T1: TNFR1 on THP-1 Lucia NF-κB cells (UniProt P19438 30-455, limits assumed)
T1 sequence (looked up): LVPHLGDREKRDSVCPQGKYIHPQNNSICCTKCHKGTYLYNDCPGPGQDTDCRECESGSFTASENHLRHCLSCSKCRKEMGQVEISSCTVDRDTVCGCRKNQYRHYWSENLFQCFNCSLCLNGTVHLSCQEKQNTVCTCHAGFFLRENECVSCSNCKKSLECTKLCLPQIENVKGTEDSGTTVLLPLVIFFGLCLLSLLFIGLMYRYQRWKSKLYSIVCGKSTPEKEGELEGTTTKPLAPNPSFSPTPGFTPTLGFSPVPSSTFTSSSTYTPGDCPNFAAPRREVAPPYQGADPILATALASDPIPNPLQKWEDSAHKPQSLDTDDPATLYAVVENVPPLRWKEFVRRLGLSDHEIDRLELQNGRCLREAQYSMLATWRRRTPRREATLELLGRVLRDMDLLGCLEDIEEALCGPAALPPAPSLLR


These binders were tested against T1, TNFR1 on THP-1 Lucia NF-κB cells (assay: cell-based or functional assay).

THP-1 IC50 [nM] | Binder
2.7 | cyclo([bhcLeu][FX1][4Pal][NMeS]W[NMeE]N[4Pal][Trp(7-Cl)][αMeS][Phe(4-COOH)]Y[Sar][Trp(βS-Me,7-OMe)]) (SMILES COc1cccc2c([C@H](C)[C@@H]3NC(=O)CN(C)C(=O)[C@H](Cc4ccc(O)cc4)NC(=O)[C@H](Cc4ccc(C(=O)O)cc4)NC(=O)[C@](C)(CO)NC(=O)[C@H](Cc4c[nH]c5c(Cl)cccc45)NC(=O)[C@H](Cc4ccncc4)NC(=O)[C@H](CC(N)=O)NC(=O)[C@H](CCC(=O)O)N(C)C(=O)[C@H](Cc4c[nH]c5ccccc45)NC(=O)[C@H](CO)N(C)C(=O)[C@H](Cc4ccncc4)NC(=O)[C@H](CCC(=O)Nc4cccnc4)NC(=O)[C@@H]4CC[C@@H](C4)NC3=O)c[nH]c12) [SEQ ID NO. 166]
0.9 | cyclo([1S4RAcpc][Nle][4Pal][Pip(4-aza)]W[NMeE]N[4Pal][Trp(7-Cl)][αMeS][Phe(4-COOH)]Y[Sar][Trp(βS-Me,7-OMe)]) (SMILES CCCC[C@@H]1NC(=O)[C@@H]2C=C[C@@H](C2)NC(=O)[C@H]([C@@H](C)c2c[nH]c3c(OC)cccc23)NC(=O)CN(C)C(=O)[C@H](Cc2ccc(O)cc2)NC(=O)[C@H](Cc2ccc(C(=O)O)cc2)NC(=O)[C@](C)(CO)NC(=O)[C@H](Cc2c[nH]c3c(Cl)cccc23)NC(=O)[C@H](Cc2ccncc2)NC(=O)[C@H](CC(N)=O)NC(=O)[C@H](CCC(=O)O)N(C)C(=O)[C@H](Cc2c[nH]c3ccccc23)NC(=O)[C@@H]2CNCCN2C(=O)[C@H](Cc2ccncc2)NC1=O) [SEQ ID NO. 182]
0.9 | cyclo([bhcLeu][Nle][4Pal][Pip(4-aza)]W[NMeE]N[4Pal][Trp(7-Cl)][αMeS][Phe(4-COOH)][Tyr(2-F)][Sar][Trp(βS-Me,7-OMe)]) (SMILES CCCC[C@@H]1NC(=O)[C@@H]2CC[C@@H](C2)NC(=O)[C@H]([C@@H](C)c2c[nH]c3c(OC)cccc23)NC(=O)CN(C)C(=O)[C@H](Cc2ccc(O)cc2F)NC(=O)[C@H](Cc2ccc(C(=O)O)cc2)NC(=O)[C@](C)(CO)NC(=O)[C@H](Cc2c[nH]c3c(Cl)cccc23)NC(=O)[C@H](Cc2ccncc2)NC(=O)[C@H](CC(N)=O)NC(=O)[C@H](CCC(=O)O)N(C)C(=O)[C@H](Cc2c[nH]c3ccccc23)NC(=O)[C@@H]2CNCCN2C(=O)[C@H](Cc2ccncc2)NC1=O) [SEQ ID NO. 175]
0.9 | cyclo([bhcLeu][Nle][4Pal][Pip(4-aza)]W[NMeE]N[Phe(4-CH2SO3H)][Trp(7-Cl)][αMeS][Phe(4-COOH)]Y[Sar][Trp(βS-Me,7-OMe)]) (SMILES CCCC[C@@H]1NC(=O)[C@@H]2CC[C@@H](C2)NC(=O)[C@H]([C@@H](C)c2c[nH]c3c(OC)cccc23)NC(=O)CN(C)C(=O)[C@H](Cc2ccc(O)cc2)NC(=O)[C@H](Cc2ccc(C(=O)O)cc2)NC(=O)[C@](C)(CO)NC(=O)[C@H](Cc2c[nH]c3c(Cl)cccc23)NC(=O)[C@H](Cc2ccc(CS(=O)(=O)O)cc2)NC(=O)[C@H](CC(N)=O)NC(=O)[C@H](CCC(=O)O)N(C)C(=O)[C@H](Cc2c[nH]c3ccccc23)NC(=O)[C@@H]2CNCCN2C(=O)[C@H](Cc2ccncc2)NC1=O) [SEQ ID NO. 171]
1.2 | cyclo([bhcLeu][Nle][4Pal][Pip(4-aza)]W[NMeE][hSOMe][4Pal][Trp(7-Cl)][αMeS][Phe(4-COOH)]Y[Sar][Trp(βS-Me,7-OMe)]) (SMILES CCCC[C@@H]1NC(=O)[C@@H]2CC[C@@H](C2)NC(=O)[C@H]([C@@H](C)c2c[nH]c3c(OC)cccc23)NC(=O)CN(C)C(=O)[C@H](Cc2ccc(O)cc2)NC(=O)[C@H](Cc2ccc(C(=O)O)cc2)NC(=O)[C@](C)(CO)NC(=O)[C@H](Cc2c[nH]c3c(Cl)cccc23)NC(=O)[C@H](Cc2ccncc2)NC(=O)[C@H](CCOC)NC(=O)[C@H](CCC(=O)O)N(C)C(=O)[C@H](Cc2c[nH]c3ccccc23)NC(=O)[C@@H]2CNCCN2C(=O)[C@H](Cc2ccncc2)NC1=O) [SEQ ID NO. 181]
0.8 | cyclo([bhcLeu][Nle][4Pal][Pip(5R-OH)]W[NMeE]N[AEF][Trp(7-Cl)][αMeS][Phe(4-CONH2)]Y[Sar][Trp(βS-Me,7-OMe)]) (SMILES CCCC[C@@H]1NC(=O)[C@@H]2CC[C@@H](C2)NC(=O)[C@H]([C@@H](C)c2c[nH]c3c(OC)cccc23)NC(=O)CN(C)C(=O)[C@H](Cc2ccc(O)cc2)NC(=O)[C@H](Cc2ccc(C(N)=O)cc2)NC(=O)[C@](C)(CO)NC(=O)[C@H](Cc2c[nH]c3c(Cl)cccc23)NC(=O)[C@H](Cc2ccc(OCCN)cc2)NC(=O)[C@H](CC(N)=O)NC(=O)[C@H](CCC(=O)O)N(C)C(=O)[C@H](Cc2c[nH]c3ccccc23)NC(=O)[C@@H]2CC[C@@H](O)CN2C(=O)[C@H](Cc2ccncc2)NC1=O) [SEQ ID NO. 145]

The remaining lines, values behind:

Binder | THP-1 IC50 [nM]
{CH2CO}-[Nle][4Pal][Pip2c][Trp(7-aza)][NMeE]N[4Pal][Trp(7-Cl)][αMeS][Phe(4-COOH)][TyrOCF3][Sar][Trp(βS-Me,7-OMe)]C-NH2 (thioether N-14; reading uncertain; also: printed as cyclo(ClAc-Nle-4Pal-Pip2c-Trp7az-NMeE-N-4Pal-Trp7Cl-aMeS-Phe4COOH-TyrOCF3-Sar-SbMeW7OMe-C)-NH2) [SEQ ID NO. 158] | 5.3
{CH2CO}-[Nle][4Pal][Pip(4-aza)]W[dPro4cPr]N[4Pal][Trp(7-Cl)][αMeS][Phe(4-COOH)]Y[Sar][Trp(βS-Me,7-OMe)]C-NH2 (thioether N-14; SMILES CCCC[C@@H]1NC(=O)CSC[C@@H](C(N)=O)NC(=O)[C@H]([C@@H](C)c2c[nH]c3c(OC)cccc23)NC(=O)CN(C)C(=O)[C@H](Cc2ccc(O)cc2)NC(=O)[C@H](Cc2ccc(C(=O)O)cc2)NC(=O)[C@](C)(CO)NC(=O)[C@H](Cc2c[nH]c3c(Cl)cccc23)NC(=O)[C@H](Cc2ccncc2)NC(=O)[C@H](CC(N)=O)NC(=O)[C@H]2CC3(CC3)CN2C(=O)[C@H](Cc2c[nH]c3ccccc23)NC(=O)[C@@H]2CNCCN2C(=O)[C@H](Cc2ccncc2)NC1=O) [SEQ ID NO. 167] | 2.6
{CH2CO}-[Nle][PyrimAla][Bhv][Trp(7-aza)][NMeE]N[4Pal][Trp(7-Cl)][αMeS][Phe(4-COOH)]Y[Sar][Trp(βS-Me,7-OMe)]C-NH2 (thioether N-14; reading uncertain; also: printed as cyclo(ClAc-Nle-PyrimAla-Bhv-Trp7az-NMeE-N-4Pal-Trp7Cl-aMeS-Phe4COOH-Y-Sar-SbMeW7OMe-C)-NH2) [SEQ ID NO. 177] | 3.3
{CH2CO}-[Nle][Phe(4-CONH2)][Val(3-OH)][Trp(7-aza)][NMeE]N[4Pal][Trp(7-Cl)][αMeS][Phe(4-COOH)]Y[Sar][Trp(βS-Me,7-OMe)]C-NH2 (thioether N-14; SMILES CCCC[C@@H]1NC(=O)CSC[C@@H](C(N)=O)NC(=O)[C@H]([C@@H](C)c2c[nH]c3c(OC)cccc23)NC(=O)CN(C)C(=O)[C@H](Cc2ccc(O)cc2)NC(=O)[C@H](Cc2ccc(C(=O)O)cc2)NC(=O)[C@](C)(CO)NC(=O)[C@H](Cc2c[nH]c3c(Cl)cccc23)NC(=O)[C@H](Cc2ccncc2)NC(=O)[C@H](CC(N)=O)NC(=O)[C@H](CCC(=O)O)N(C)C(=O)[C@H](Cc2c[nH]c3ncccc23)NC(=O)[C@H](C(C)(C)O)NC(=O)[C@H](Cc2ccc(C(N)=O)cc2)NC1=O) [SEQ ID NO. 164] | 3.6
{CH2CO}-[Nle][4Pal][Pip(5R-OH)]W[dHyp]N[Phe(4-COOH)][Trp(7-Cl)][αMeS][Phe(4-CONH2)]Y[Sar][Trp(βS-Me,7-OMe)]C-NH2 (thioether N-14; SMILES CCCC[C@@H]1NC(=O)CSC[C@@H](C(N)=O)NC(=O)[C@H]([C@@H](C)c2c[nH]c3c(OC)cccc23)NC(=O)CN(C)C(=O)[C@H](Cc2ccc(O)cc2)NC(=O)[C@H](Cc2ccc(C(N)=O)cc2)NC(=O)[C@](C)(CO)NC(=O)[C@H](Cc2c[nH]c3c(Cl)cccc23)NC(=O)[C@H](Cc2ccc(C(=O)O)cc2)NC(=O)[C@H](CC(N)=O)NC(=O)[C@H]2C[C@H](O)CN2C(=O)[C@H](Cc2c[nH]c3ccccc23)NC(=O)[C@@H]2CC[C@@H](O)CN2C(=O)[C@H](Cc2ccncc2)NC1=O) [SEQ ID NO. 185] | 0.9
cyclo([bhcLeu][Nle][4Pal][Pip(4-aza)]W[NMeE]N[4Pal][Trp(7-Cl)][αMeS][Phe(4-COOH)]H[Sar][Trp(βS-Me,7-OMe)]) (SMILES CCCC[C@@H]1NC(=O)[C@@H]2CC[C@@H](C2)NC(=O)[C@H]([C@@H](C)c2c[nH]c3c(OC)cccc23)NC(=O)CN(C)C(=O)[C@H](Cc2c[nH]cn2)NC(=O)[C@H](Cc2ccc(C(=O)O)cc2)NC(=O)[C@](C)(CO)NC(=O)[C@H](Cc2c[nH]c3c(Cl)cccc23)NC(=O)[C@H](Cc2ccncc2)NC(=O)[C@H](CC(N)=O)NC(=O)[C@H](CCC(=O)O)N(C)C(=O)[C@H](Cc2c[nH]c3ccccc23)NC(=O)[C@@H]2CNCCN2C(=O)[C@H](Cc2ccncc2)NC1=O) [SEQ ID NO. 178] | 3.3
